Experimental data: US20240075139A1

Target: EBOV Mayinga (GenBank: NC_002549) (Zaire Ebolavirus (EBOV Mayinga)) (UniProt Q05320)
Assay: cell-based or functional assay

Chain of UniProt Q05320 (Q05320 33-676 limits assumed): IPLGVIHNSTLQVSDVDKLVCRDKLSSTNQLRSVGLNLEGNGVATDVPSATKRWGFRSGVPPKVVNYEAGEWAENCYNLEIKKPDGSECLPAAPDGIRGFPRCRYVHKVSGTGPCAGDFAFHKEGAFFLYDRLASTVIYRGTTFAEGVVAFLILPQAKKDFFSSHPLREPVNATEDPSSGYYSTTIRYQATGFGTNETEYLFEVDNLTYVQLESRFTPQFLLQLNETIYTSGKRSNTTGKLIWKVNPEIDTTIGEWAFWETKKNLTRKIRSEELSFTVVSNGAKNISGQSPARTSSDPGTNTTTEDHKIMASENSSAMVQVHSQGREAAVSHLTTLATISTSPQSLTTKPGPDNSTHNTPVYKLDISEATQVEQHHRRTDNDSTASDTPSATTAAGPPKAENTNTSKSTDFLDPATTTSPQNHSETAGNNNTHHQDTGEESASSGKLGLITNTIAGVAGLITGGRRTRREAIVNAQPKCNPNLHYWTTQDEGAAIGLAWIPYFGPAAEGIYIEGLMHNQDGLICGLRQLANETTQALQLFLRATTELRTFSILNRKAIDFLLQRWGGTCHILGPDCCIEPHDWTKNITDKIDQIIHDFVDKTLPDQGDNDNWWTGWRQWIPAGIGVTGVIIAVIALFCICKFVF

| Binder | neutralization concentration (GMC, CPE reduction on Vero C1008 cells) |
| --- | --- |
| 3T0673 (antibody, V domains shown) VH: EVQLVESGGGRVKPGGSLRVSCAVSGITFTNAWMTWVRQAPGKGLEWLGRIKSRSDGGQSDLIAPVKGRFTISRDDSKNILYLQMNNLKTEDTGLYFCTTYYYDNGGSYSNPWGLGTLVTVSS VL: QSVLTQPPSVSGAPGQRVTISCTGSYSNIGAGYDVLWYQQLPGTAPKLLIYGNNKRPSGVPDRFSGSKSGTSASLAITGLQAEDEADYYCQSYDSRLRDFGIFGGGTKLTVL | 0.53 µg/mL |
| 5T0278 (antibody, V domains shown) VH: EVQLVESGGGLVKPGGSLRVSCAASGFPFTDAWMSWVRQAPGKGLEWVGRIKSNSDGGIPDYAAPVKGRFTISRDDSKRTLYLQMNSLKTEDTGYYYCYTLRFFGPGNSWGQGTLVTVSS VL: QSVLTQPPSVSGAPGQRITISCTGSYSNIGAGYDVSWHQQLPGKAPKLLIYGNNNRPSGVPDRFSGSKSGTSASLTITGLQAEDEADYYCQSYDARLRDQVVFGGGTKLTVL | 0.63 µg/mL |
| 3T0650 (antibody, V domains shown) VH: EVQLVQSGGGLVKPGGSLRLSCAASGFTFSNAWMNWVRQAPGKGLEWIGRVKSQTDRGTKDYAAPVKGRFSISRDDSKKMLYLQMNSLKIEDTGVYYCVATPHSWSVAWGQGTLVTVSS VL: QSVLTQPPSVSGAPGQRVTISCTGSSSNIGAGYDVQWYQQFPGTAPKLLIYGNINRPSGVPDRFSGSKSGSSASLAITRLQAEDEADYYCQSYDSSLRDQWVFGGGTKLTVL | 0.74 µg/mL |
| 3T0478 (antibody, V domains shown) VH: VQLLQESGPGLVKPSETLSLTCTVSGGSISSYYWNWIRQSPGKGLEWMGYIYYTGSTNYNPSLKSRVTISVDLSKNQFSLKLRSVTAADTAVYYCARDKRYYDSSGYSHFDYWGQGILVTVSS VL: QSVLTQPPSASGTPGQRVTIFCSGSSFNIGSNYVYWYQQLPGTAPKLLIYRNNERPSGVPDRFSGSKSGTSASLDISGLRSEDEADYSCAAWDGSLSGPVFGGGTKLTVL | 0.78 µg/mL |
| 3T0331 (antibody, V domains shown) VH: EVQLLESGGGLVQPGGSLRLSCEASGFPLRDYAMSWVRQAPGRGLQWVSTIGGNDNAANYADSVKGRFTVSRDNSKSTIYLQMNSLRAEDTALYFCAKSVRLSRPSPFDLWGQGSLVTVSS VL: EIVLTQSPATLSLSPGERATLSCRASQSVSTYLAWYQHQPGQAPRLLIYEASNRATGIPARFSGSGSGTEFTLTISSLEPEDVAVYYCQQRASWPLTFGGGTKVEIK | 0.011 µg/mL |
| 3T0202 (antibody, V domains shown) VH: EVQLVESGGGLVQPGGSLRLSCAASGFKFRSYDMHWVRQRSGEGLEWVAAIGTAADTYYLGSVRGRFTISRENAKNSLYLQMDSLGAGDTAVYYCARAAFGAVFFDYWGQGTLVTVSS VL: EIVLTQSPGTLSLSSGERATLSCRASQSISSSYLVWYQQKLGQAPRLLIYGASRRATGIPDRFSGSGSGTDFTLTISRLEPEDFAVYYCQQYGNSPITFGQGTRLEIK | 0.53 µg/mL |
| 3T0245 (antibody, V domains shown) VH: EVQLVESGGDLVKPGGSLRLSCEASGFTFTNAWMNWVRQSPGKGLEWIGRVKSKSDGGAADYAAPVKGRFTISRDDSKNSVFLQMRSLKPEDTGVYYCATRVHYNGMDVWGRGTTVTVSS VL: QSVLTQPPSVSGAPGQRVTISCAGSGSNIGAGYDVHWYQQLPGTAPKLLIYANHNRPSGVPDRFSGSKSGSSASLAITGLQAEDEADYYCQSYDSSLRDACVFGGGTKLTV | 0.63 µg/mL |
| 5T0465 (antibody, V domains shown) VH: QVQLVQSGAEVREPGASVRISCKASGYTFTSASIHWVRQAPGQGLEWMGIIDPVVGKTRSERKFNGRLIMTRDTPTSTVYMELNSLRSDDTAMYYCARSGYYPRGMDVWGQGTTVTVSS VL: SYELTQPPSVSVSPGQTASITCSGDKLGDEYVSWYQQKPGQSPVLVISRDTRRSSGIPERFSGSNSGNTATLTISGTQAMDEADYYCQAWDSSTAVVFGGGTKLTVL | 0.66 µg/mL |
